B1: C37(Q652L) (N-acetylated, C-term amidated) (peptide)
peptide: Ac-HTTWMEWDREINNYTSLIHSLIEESQNLQEKNEQELL-NH2
B2: C37-linker-CD4M33C1F23 (designed binder)
chain: HTTWMEWDREINNYTSLIHSLIEESQNQQEKNEQELLSSSGGGGSGGGGSSSSCNLHFCQLRCKSLGLLGKCAGSFCACV

Legend:
Assay in all cases: cell-based or functional assay
[1] = target: HIV-1 ADA (R5) env (gp120 and gp41) (HIV-1 strain ADA)
[2] = target: HIV-1 ADA (R5) env (gp120 and gp41) (HIV-1 strain ADA); remark: listed apart in the source
[3] = target: HIV-1 HXB2 env (X4) (gp120 and gp41) (HIV-1 strain HXB2, UniProt P04578 33-856; P04578 33-856)
[4] = target: HIV-1 JRFL (R5) env (gp120 and gp41) (HIV-1 strain JRFL)

| Binder | R5 fusion assay IC50 [1] [µM] | Inhibition of HIV single round pseudovirus in TZM-bl cells, ADA (R5), IC50 [2] [µM] | R5 fusion with competition IC50 [1] [µM] | R5 fusion with wash-out on ADA cells IC50 [1] [µM] | R5 fusion with wash-out on P5L cells IC50 [1] [µM] | X4 fusion assay IC50 [3] [µM] | Inhibition of HIV single round pseudovirus in TZM-bl cells, JRFL (R5), IC50 [4] [µM] | Inhibition of HIV single round pseudovirus in TZM-bl cells, JRFL (R5), IC90 [4] [µM] | Inhibition of HIV single round pseudovirus in TZM-bl cells, ADA (R5), IC90 [2] [µM] |
| --- | --- | --- | --- | --- | --- | --- | --- | --- | --- |
| B1 | 0.0282 | 0.114 |  |  |  |  |  |  |  |
| B2 | 0.00683 | 0.00233 | 0.00778 | 0.0778 | 0.561 | 0.0023 | 0.00225 | 0.0243 | 0.0173 |

From patent publication US20110263485A1 (University of California, published 2011)
